# Test results: a protein production outcome set (Wang et al. 2014)
# Assay: label from the status in PepcDB records
row,Sequence,protein production
1,MNEIFGIDLGTTYSCISYVDEYGRPVVVPNAENERITPSVVFFDGDNVIVGDVAKENSKMYPEDVVSFVKRSMGDENFYFEHGGKNYHAEEISSFILRKLISDAENNLGQKINDVVITCPAYFGINEREATKLAGEIAGLNVKAIINEPTAAAVAYGVDYDKDKVVLVYDLGGGTFDVTMIDVKKDSIKVICTGGDHNLGGKDWDDALIAYMAEQYKEITGNDKDILEDPETCQELQLLAERVKKTLSQREKAPISINYEGERAKIEITRQKFNELTYDLLQRTVNLMDDMLKEAAKKNYTSFDEILLVGGSSRMPQVEEIIKNKYNIEPKVFDPDEAVSKGAALYGWKLSVNDELVRRISEETGKDIEDIKKSIDEKSIDENVVEAAAKRVADDTGYTLSAVKASNVKVVNVVSKSFGVVTYNNEEKEVVYNLIIKNSEVPYEFTERFGTREENQENVMIKIVEDELSDKIVDIAYGNEIGEAELVLPENLPKNSPVDITFKLNEEGRLEIKAIEAVEKREISTSIETSSVIKGKDLEEAKERNKNIEVS,failed
2,MSLEARVLTGAALEARLDEVARLRIAVFRDWPYLYEGSMDYERSYLSTYRTSPGAILVGAFDGDRLVGASTGTPMEDHAEDFAAAFARTGLPLDEIFYCAESVLLPDYRGHGMGHRFFDLREAHARALGRRHSAFCSVIRPEDHPLRPAAARSNEPFWRKRGYAPLPGVVAHYGWTDVGEERETQKPLQFWIRDL,not failed
3,MLVSLLGILLSVIVGFVVTLISTKWVIGLCKKRGFTGKDINKLTKDDVPVLGGIGIVAGFVAGSFTFLLTSYNLSPGIENVVVSILLSSLIIGFLGLLDDIFNISQATRAFLPIFASIPLILYSVGHTIISIPFLGKVNFGILFYIIILPATLTITANAFNMLEGLNGLGAGMGLIMALALAYIGLKSGGTSFYAGIVSIILASVLFGFLIFNFYPAKTFPGNIGTYFIGSVIGSIGISGYMYTALFFLYLPYVIEFVLKAKTRFKGVSFGKIDDQGYLHWDSKPNSLTHIVMRIGKFKEYHIVLIIWGIEILFAILAVVFQTVTITI,failed
4,MEKLEVGQLAPDFRLKNSDGVEISLKDLLHKKVVLYFYPKDNTPGCTLEAKDFSALFSEFEKKNAVVVGISPDNAQSHQKFISQCSLNVILLCDEDKKAANLYKAYGKRMLYGKEHLGIIRSTFIINTQGVLEKCFYNVKAKGHAQKVLESL,failed
5,MKYCTLDDLILSFGQDEIYRLIATDQEAEKALDDAQAEIDMYLSDRYALPVKSVPKSLNRIACDIAHYYLYNSVDEDSTVYLRYKHRIKQLSDVAAGKLSLGLYDKSDDATTDNQVVFIKSSKKVFAR,not failed
6,MNKGKFALLFTFAACFAVIVFFWLLAVPPENFTADRIVMVLLISPIFAILLAFNLSRFLKQHGYSLRQVHVALEQNIADFIYEFQRLVFIHLMPIAFLGALIFYYGEFTPAIAEFLSLFALIFALSPLLFLGISFFVAMLQVYERVRKKSLLRANFFNFWIWIHLFVILLIIISKVLVQPSELPFQKAYFKALNDGVFNLLIIATMNAIFGVTGRMVAREKFPILLHLSIPLVNSFVAVKILMA,failed
7,AIAKLPISTISPIHYMKSVVSSRETRNESNKSRRTFASTEWNKIIRETLYLETVYIPVDATSHSPDIIFKLQSPVEPKVLTVGVACKGRWKSEGIGWSDIIDEAKKFLDPVYDQVLSSAMDYHHCMLIIVSTKLSLNVSNELGNQSRCYSSGMFIGGDSFKVPDNCELVILCERDVQMLIDKEILNGLERAFCVSHNPTFWDFGLDLLDRIRNSFLSWQ,failed
8,MAPAEPACRCAAAPCSSMIGIDRGSAARLILFRKTFYNIEHTFGRLIVASDLRGLAKYVEPGIRLAVPVDYAGVSMAMTRPIIERKAGNLHLICVPTGGLQVDQLIGSGLVRTVETSAVTLGEAGGAPRFNAAVKDGSIKLMDATCPAIHAGLMAAQKGSPFMPMRGLIGSDILRHRKDWRVIDNPLSDGGDPVVLIPAIKPDVTIFHAPMADRFGNVWIGRRRELAAMAYASATTLVTVERIVEESLLANEITAAGVLPAIYVTEVALAPKGAWPYGLWGEYQTDTQELVRYARAARTAEGFADYMATTQMEPA,failed
9,MAEIDYKKVTGMIHSTESFGSVDGPGIRFIIFMQGCKMRCQYCHNPDTWEMETNNSKERTVEDVLKEALRYKHFWGKDGGITVSGGEAMLQIDFITALFIEAKKLGIHTTLDTCGFAYRATPEYHAILEKLLDVTDLVLLDLKEIDSEQHKIVTRQSNKNILQFARYLSDRGTPVWIRHVLVPGLTDIDDHLKRLGEFVQTLDNVDKFEVLPYHTMGEFKWRELGIPYPLAGVKPPTPERVKNAKDIMKTESYTEYLKRIQN,not failed
10,MEKKILKPLRKTVSELLCVICTSLLLISLFSFTALAGDINTSPNINSDDKISASVVSKLTEISGDEQIPVIITLPNQKIAFNTAAGKYQIESEQKNLIKFLENEKSKNKVNKIKPIKIINAVAAKVNPEVLASLAGRSDVSKIELDEVVSIVGQSEPSFKKIAASTTLSTAASTNAWGVDKIDAPAVWQQGINGKGITVAVVDTGIDATHPDLDDLDDNPSTNDPKVVGWVDYINSQSSAYDDNGHGTHVAGIVSGTGDNGIQTGVAPGTKLLVAKVFDSEGDGYLSTCILGFEWAVNNNARIISFSGGSPEHDSLFTTMINKVVAAGVVPVIAAGNDGDGSGTITCPGDELNSLTVGATDSSDAIADFSSRGPVTLDDQTYIKPDISAPGVSIPSTYPGDGYAYGDGTSMAAPHVSGTVALILEKKPTMTPAEVKKELESTAVDLGSAGKDNDYGSGRIDAYDAVFGKGPVANFYAKPTSGKVPLTVAFTDTSTGTPTKWRWNFGDGSKSFLQNPKHKYSKAGTYTVNLTVKNAKGKNTVTKTDYIVVISKPTAAFSASPTSGKAPLTVAFTDKSSGNPTAWKWSFGDGTISREKNPTHQYLQEGKYKITLTVSNAAGKSTTKKINYIKVTTNTRPGIYSESK,failed
11,MGNFHATTIFAVHHNGECAMAGDGQVTMGNAVVMKHTARKVRKLFQGKVLAGFAGSVADAFTLFEMFEGKLEEYNGNLQRAAVEMAKQWRGDKMLRQLEAMLIVMDKTTMLLVSGTGEVIEPDDGILAIGSGGNYALSAGRALKQYASEHLTAKQIAKASLEIAGDICVYTNHNIIVEEL,not failed
12,GSHMDKTFCVVVQNRIKEGYRRAGFSFHLGDNSLAAVSESQLAQLKADPRLVVQITETGSQEGGEGLSKEPAGSDEQKQLRADPPSTDLNTFTVEQLKAQLTERGITFKQSATKAELIALFAPADGEKSEA,not failed
13,MAKYNEIAKKKREAKADRKRAIHGDPLTNKLKTRTPVPSVSGKRQRKLLRKWRREQKDMVEKGLVTMEDVEMASAQAASEDSKKSPRKFSVKKSLKLNKLNNKGKKKKNQKASGEKSADCMLE,failed
14,MNLFRKISEKLKSYEDWVTEANYYLDEGIYDKAVECYLKALEKKNTNPIDWFNLAYALYHLEKYDSALEAINEALKISPSNIYFAYLKGLIHYKRGEIILAYKYLKKASEKIKNEELFEILGDISVKYGRYEEALKYYLKSYKMANSKNLNALFKAGKIYLLFGDIDKAYDAFNEILQQNPSHECKKIVECMENVVNAINSYEDLNNGLTMIKNKDYIGALKIFNKVLQIDENSDISYYYKSVIAEIFEEYKKALEYIDKSISIFNRSLYYAKKGDILYKLGDEEGAIEAYNKAIKLNSQNPYAYFGLAILYYRKGELEKSSNFFDKVLETYLEELSEEDISALNLYSLIGKAETTGIPKYYHEAMKYVDNLINLENSSRWWYVKGYIYYKLGNYKDAYESFMNALRVNPKDISTLKSLAIVLEKSGKIDEAITTYTKILKIVNSLQFTCEIDNILEKLRSRKPTNLEIPSVLFDIPVMYHKPNITCFYASNLWKYMANNNPIGAYIYLSFIESYISLDEISQMVNDIKSKLSLEMYRYCELIDDYKSDESVLMQIKELLQKLGCML,failed
15,MATETQIRIGVMGCADIARKVSRAIHLAPNATISGVASRSLEKAKAFATANNYPESTKIHGSYESLLEDPEIDALYVPLPTSLHVEWAIKAAEKGKHILLEKPVAMNVTEFDKIVDACEANGVQIMDGTMWVHNPRTALLKEFLSDSERFGQLKTVQSCFSFAGDEDFLKNDIRVKPGLDGLGALGDAGWYAIRATLLANNFELPKTVTAFPGAVLNEAGVILSCGASLSWEDGRTATIYCSFLANLTMEITAIGTKGTLRVHDFIIPYKETEASFTTSTKAWFNDLVTAWVSPPSEHTVKTELPQEACMVREFARLVGEIKNNGAKPDGYWPSISRKTQLVVDAVKESVDKNYQQISLSGR,not failed
16,MKTTTIFTAALLACLSAPAHAQDLRGSEAGAVMKRESDVRDYYELQQRLKESRESRPEEAVTDRTEPAPQPPADGGQRVFISHIVTDPSEILTEDDLRQVVAPLEGKEVSIRELLAMVDRINDLYRQKGYLTARAVLPPQKVERGTVRIRLVEGRVGRISVGGNRHTRDWFVTSRLHLREGDLVRLDTLENDLFRFNAINDVKLRAEVKPGTATGTTDLILRTQEPDNYRVVAFADNGGGRYIGQERLGLTLQDLSLLGIRDPLTVGGTVADGTLSAHASYSLPLTPVGTRLGVTYDYTSIWITSGPFESLDVDGTSSDLGLTLSQPFALSPALSVTTFAGFNWKKSTTDFGGDTIFENRTRTLTLGGDLLAIDGYGTWFTRHVLTQGFHDFGGDRSFFKYNGDLVRTFILPDDFSALVRASGQVSGNHLLPSSEQFQLGGIATVRGFYEGLLIGDDGYFVSAELTLPLFPADASVYDVRLSPLLRGAIFFDHGGAFPYKGSGESIDHNDFLSSAGFGFILNLAKYLTGRIDFGFPVGERDPDPGTVRVHFSLSSEIL,failed
17,MKHIHIIGIGGTFMGGLAAIAKEAGFEVSGCDAKMYPPMSTQLEALGIDVYEGFDAAQLDEFKADVYVIGNVAKRGMDVVEAILNLGLPYISGPQWLSENVLHHHWVLGVAGTHGKTTTASMLAWVLEYAGLAPGFLIGGVPENFGVSARLPQTPRQDPNSQSPFFVIEADEYDTAFFDKRSKFVHYRPRTAVLNNLEFDHADIFADLGAIQTQFHYLVRTVPSEGLIVCNGRQQSLQDTLDKGCWTPVEKFGTEHGWQAGEANADGSFDVLLDGKTAGRVKWDLMGRHNRMNALAVIAAARHVGVDIQTACEALGAFKNVKRRMEIKGTANGITVYDDFAHHPTAIETTIQGLRQRVGGARILAVLEPRSNTMKLGTMKSALPVSLKEADQVFCYAGGVDWDVAEALAPLGGRLNVGKDFDAFVAEIVKNAEVGDHILVMSNGGFGGIHGKLLEALR,not failed
18,MLLKRSLPKMRWKSWVKPWQQLDWPLFCLPVGVSIFGGLMILSTELKQPVTDWWWHWLIAGIGVFIALFLARCRYDNLLQWHWITYVLTNISLITVMAAGTSAKGAQRWLTIGGFNVQPSEFAKIGVIITLAALLHKHTATRIEDVFRALAITAIPWLLVFVQPDLATSLVFGAIVLGMLYWANANPGWLLLMISPIIAAILFTMSWPLSTPIILFKEIFITPFGVAWAIGMAILGWLTLPWRRFNMGTIGAFSLNLLGGELGIFAWNHVLKEYQKNRLTAFINPEQDPLGSGYHLIQSRIAIGAGEMWGWGLFKGPMTQLNFVPEQHTDFIFSAIGEEFGLFGCLIVLFVFCLICWRLLHVAQTAKDNFGSLLAIGVLSMIIFQLVVNVGMNVGLAPVAGIPLPWMSYGRSAMLTNFIALGIVESVANFRQRQKYYF,failed
19,MKDEVQLKKYLPSLIFAIILPVIAYLFLKMLGNSDTLALGIATAFPVVHMLWSLIRKKELNPVSLVAIIGFLISLLAVYLTHGNNLAFKLWHPILTAAIGTIFLLSVLLNRPLLELASEGENHRKMLIMTLFMGLVFIFHALSVILLAFFVETTAFVLLSKVIDFSAVGVLVLGLAFLRKKLN,failed
